US20180055925A1 (UNITED STATES OF AMERICA AS REPRESENTED BY THE SECRETARY …, published 2018)

Target: T1, SpoIVA^AF488 (His6-tagged cysteine-less SpoIVA variant, C98S, with a single engineered N-terminal cysteine, … (Bacillus subtilis, UniProt P35149 1-492, Alexa Fluor 488 C5-maleimide on the single engineered cysteine at the N-terminus (second residue)))
T1 construct: SpoIVA polymerizes in the presence of ATP; also called SpoIVA^A488
T1 sequence: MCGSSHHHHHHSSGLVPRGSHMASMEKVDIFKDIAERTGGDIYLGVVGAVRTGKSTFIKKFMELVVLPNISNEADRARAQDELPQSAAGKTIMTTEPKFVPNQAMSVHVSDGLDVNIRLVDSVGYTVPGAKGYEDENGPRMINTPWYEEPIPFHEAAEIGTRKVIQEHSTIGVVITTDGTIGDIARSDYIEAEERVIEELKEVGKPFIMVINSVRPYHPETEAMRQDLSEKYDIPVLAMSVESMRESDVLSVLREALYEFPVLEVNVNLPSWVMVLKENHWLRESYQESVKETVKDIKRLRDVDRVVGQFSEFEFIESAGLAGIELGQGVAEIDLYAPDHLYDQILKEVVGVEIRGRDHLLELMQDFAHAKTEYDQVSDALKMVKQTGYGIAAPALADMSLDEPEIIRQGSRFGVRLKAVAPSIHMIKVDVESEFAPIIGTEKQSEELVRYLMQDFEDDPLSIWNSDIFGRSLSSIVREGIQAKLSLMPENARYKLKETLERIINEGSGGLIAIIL
Test: fluorescence microscopy of SpoVM-coated SSLBs incubated with increasing SpoIVA^AF488
Description: SpoVM-coated SSLBs were collected by centrifugation at 13,000×g for 1 minute, and then were incubated with varying concentrations of SpoIVA^AF488 in a final volume of 100 μL buffer A containing 10 mM MgCl₂ and 4 mM ATP, overnight at room temperature with gentle inversion. SSHEL particles were collected by centrifugation and resuspended in 100 μL buffer A for microscopy. For competition assays, SpoVM-SSLBs were incubated with 0.006 μM SpoIVA^A488 in the presence or absence of 4 mM ATP in buffer A containing 10 mM MgCl₂. The fluorescent SSLBs were collected by centrifugation, and resuspended with 100 μL buffer A containing 5 μM unlabeled SpoIVA. 5 μL aliquots were taken at indicated time points for microscopy.
To test this model of basement layer assembly in vitro, spherical supported lipid bilayers (SSLBs) were constructed by coating 2 μm-diameter silica beads with a phospholipid bilayer (Bayerl and Bloom, Biophys J 58, 357-362 (1990) and Gopalakrishnan and Rouiller, Langmuir 25, 5455-5458 (2009)) to mimic the surface of the forespore. […] The SpoVM-coated SSLBs were then incubated with increasing concentrations of SpoIVA^AF488 and measured its adsorption using fluorescence microscopy (FIG. 1C). […] At higher concentrations of SpoIVA^AF488 the heterogeneity in fluorescence between SSLBs was reduced and SpoIVA^AF488 adsorption approached saturation (FIG. 1C, 1E).

- binding result: binds
B1: SpoVM (synthesized 26 amino acid peptide, adsorbed on spherical supported lipid bilayers) (peptide)
peptide: MKFYTIKLPKFLGGIVRAMLGSFRKD
notes: also called SpoVM peptide; SpoVM-coated SSLBs
